Laboratory results reported in patent US20220073617A1 (Five Prime, published 2022).

Columns and labels:
[1] = target: T1, monovalent hVISTA-ECD (human VISTA extracellular domain with His tail) (human, UniProt Q9H7M9 33-193); assay: SPR
T1 construct: analyte flowed over captured antibody; also called huVISTA-His
Procedure: (§1) Binding of several preparations of each of the '029 progeny clones and of the parent '029 antibodies, formatted as IgG1.3 antibodies, to human VISTA at pH 6.0 and 7.4 was measured by Surface plasmon resonance (SPR). SPR analysis was performed to measure koff and KD binding affinity measurements for VISTA Abs at acidic and neutral pHs using a Biacore® T100 instrument (GE Healthcare). Protein A (ThermoFisher Scientific catalog #21181) was diluted to 20 ug/ml in 10 mM sodium acetate pH 4.5 and immobilized onto flow cells of a CM5 biosensor following the manufacturer's amine coupling protocol (GE Healthcare), targeting 2,000 RU immobilization density of Protein A per flow cell. SPR experiments were conducted at 37° C. using PBST (137 mM sodium chloride, 2.7 mM potassium chloride, 10 mM phosphate buffer, 0.05% Tween® 20) running buffer at pH 7.4 and 6.0. Antibodies were diluted to 25 nM in PBST pH 7.4, and were captured across active biosensor flow cells at 5 ul/min for 60 seconds. […] Two 15 second injections of 10 mM glycine pH 1.5 were used to regenerate the Protein A capture surface between assay cycles. Rate constants ka (kₒₙ) and kd (koff) were derived from reference flow cell and 0 nM blank-subtracted sensorgrams, and were fit to a 1:1 binding model in Biacore® T200 Evaluation Software v.2.0. The affinity constant, KD was calculated as the ratio of rate constants koff/kₒₙ for each VISTA antibody. […]

[2] = target: T1, monovalent hVISTA-ECD (human VISTA …); assay: SPR, pH 7.4
Procedure: as §1

[3] = target: T1, monovalent hVISTA-ECD (human VISTA …); assay: SPR, pH 6.0
Procedure: as §1

T1 sequence (Q9H7M9 other isoform, or with tags, fused parts or gaps limits assumed): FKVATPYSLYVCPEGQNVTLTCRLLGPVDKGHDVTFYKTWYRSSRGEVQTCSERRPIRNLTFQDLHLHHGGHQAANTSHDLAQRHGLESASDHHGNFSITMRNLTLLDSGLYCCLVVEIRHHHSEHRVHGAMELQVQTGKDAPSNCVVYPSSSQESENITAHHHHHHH

| KD ratio (pH 7.4/pH 6.0) [1] | Kd [2] [nM] | koff [2] [s⁻¹] | kon [2] [M⁻¹ s⁻¹] | Kd [3] [nM] | koff [3] [s⁻¹] | kon [3] [M⁻¹ s⁻¹] | Binder |
| --- | --- | --- | --- | --- | --- | --- | --- |
| 0.2 | 3.6 | 0.000987 | 274000 | 18 | 0.0411 | 2.29e+06 | P1-064472 (41F11_VH_F27E) (antibody, V domains shown, Kabat positions; also called P1-064472-1) VH: QVQLVESGGGLVKPGGSLRLSCAASGETFSDYYMSWIRQAPGKGLEWVSYISNSGSPIYYADSVKGRFTISRDNAKNSLYLQMNSLRAEDTAVYYCARDLPGWYFDLWGRGTLVTVSS VL: EIVLTQSPATLSLSPGERATLSCRASQSVSSYLAWYQQKPGQAPRLLIYDASNRATGIPARFSASGSGTDFTLTISSLEPEDFAVYYCQQRNNWPRTFGQGTKVEIK |
| 4.6 | 0.768 | 0.000227 | 296000 | 0.167 | 0.000584 | 3.49e+06 | P1-064528 (41F11_VH_D31E/Y50W/S55E/L96E/Y100E) (antibody, V domains shown, Kabat positions; also called P1-064528-1) VH: QVQLVESGGGLVKPGGSLRLSCAASGFTFSEYYMSWIRQAPGKGLEWVSWISNSGEPIYYADSVKGRFTISRDNAKNSLYLQMNSLRAEDTAVYYCARDEPGWEFDLWGRGTLVTVSS VL: EIVLTQSPATLSLSPGERATLSCRASQSVSSYLAWYQQKPGQAPRLLIYDASNRATGIPARFSASGSGTDFTLTISSLEPEDFAVYYCQQRNNWPRTFGQGTKVEIK |
| 0.45 | 15.3 | 0.00341 | 223000 | 34.3 | 0.105 | 3.07e+06 | P1-064486 (41F11_VH_F100aG) (antibody, V domains shown, Kabat positions; also called P1-064486-1) VH: QVQLVESGGGLVKPGGSLRLSCAASGFTFSDYYMSWIRQAPGKGLEWVSYISNSGSPIYYADSVKGRFTISRDNAKNSLYLQMNSLRAEDTAVYYCARDLPGWYGDLWGRGTLVTVSS VL: EIVLTQSPATLSLSPGERATLSCRASQSVSSYLAWYQQKPGQAPRLLIYDASNRATGIPARFSASGSGTDFTLTISSLEPEDFAVYYCQQRNNWPRTFGQGTKVEIK |
| 0.07 | 6.89 | 0.000381 | 55400 | 96.5 | 0.0121 | 126000 | P1-064478 (41F11_VH_Y50E) (antibody, V domains shown, Kabat positions; also called P1-064478-1) VH: QVQLVESGGGLVKPGGSLRLSCAASGFTFSDYYMSWIRQAPGKGLEWVSEISNSGSPIYYADSVKGRFTISRDNAKNSLYLQMNSLRAEDTAVYYCARDLPGWYFDLWGRGTLVTVSS VL: EIVLTQSPATLSLSPGERATLSCRASQSVSSYLAWYQQKPGQAPRLLIYDASNRATGIPARFSASGSGTDFTLTISSLEPEDFAVYYCQQRNNWPRTFGQGTKVEIK |
| 2.45 | 19.1 | 0.00223 | 117000 | 7.81 | 0.0178 | 2.28e+06 | P1-064516 (41F11_Vk_V29D/A64G/R91T/R96Y) (antibody, V domains shown, also called P1-064516-1) VH: QVQLVESGGGLVKPGGSLRLSCAASGFTFSDYYMSWIRQAPGKGLEWVSYISNSGSPIYYADSVKGRFTISRDNAKNSLYLQMNSLRAEDTAVYYCARDLPGWYFDLWGRGTLVTVSS VL: EIVLTQSPATLSLSPGERATLSCRASQSDSSYLAWYQQKPGQAPRLLIYDASNRATGIPARFSGSGSGTDFTLTISSLEPEDFAVYYCQQTNNWPYTFGQGTKVEIK |
| 1.79 | 16.2 | 0.000675 | 41700 | 9.05 | 0.00649 | 717000 | P1-064534 (41F11_VH_D31E/S35Y/Y50W/S55E/A60H/Y100E/F100aG) (antibody, V domains shown, Kabat positions; also called P1-064534-1) VH: QVQLVESGGGLVKPGGSLRLSCAASGFTFSEYYMYWIRQAPGKGLEWVSWISNSGEPIYYHDSVKGRFTISRDNAKNSLYLQMNSLRAEDTAVYYCARDLPGWEGDLWGRGTLVTVSS VL: EIVLTQSPATLSLSPGERATLSCRASQSVSSYLAWYQQKPGQAPRLLIYDASNRATGIPARFSASGSGTDFTLTISSLEPEDFAVYYCQQRNNWPRTFGQGTKVEIK |
| 0.48 | 44.7 | 0.0145 | 325000 | 94.1 | 0.157 | 1.67e+06 | P1-064500 (41F11_Vk_Q90DA64G) (antibody, V domains shown, also called P1-064500-1) VH: QVQLVESGGGLVKPGGSLRLSCAASGFTFSDYYMSWIRQAPGKGLEWVSYISNSGSPIYYADSVKGRFTISRDNAKNSLYLQMNSLRAEDTAVYYCARDLPGWYFDLWGRGTLVTVSS VL: EIVLTQSPATLSLSPGERATLSCRASQSVSSYLAWYQQKPGQAPRLLIYDASNRATGIPARFSGSGSGTDFTLTISSLEPEDFAVYYCQDRNNWPRTFGQGTKVEIK |
| 0.29 | 10.3 | 0.00207 | 200000 | 35.6 | 0.0485 | 1.36e+06 | P1-064494 (41F11_Vk_A25EA64G) (antibody, V domains shown, also called P1-064494-1) VH: QVQLVESGGGLVKPGGSLRLSCAASGFTFSDYYMSWIRQAPGKGLEWVSYISNSGSPIYYADSVKGRFTISRDNAKNSLYLQMNSLRAEDTAVYYCARDLPGWYFDLWGRGTLVTVSS VL: EIVLTQSPATLSLSPGERATLSCRESQSVSSYLAWYQQKPGQAPRLLIYDASNRATGIPARFSGSGSGTDFTLTISSLEPEDFAVYYCQQRNNWPRTFGQGTKVEIK |
| 3.64 | 26.1 | 0.00353 | 135000 | 7.18 | 0.0153 | 2.13e+06 | P1-064484 (41F11_VH_L96E) (antibody, V domains shown, Kabat positions; also called P1-064484-1) VH: QVQLVESGGGLVKPGGSLRLSCAASGFTFSDYYMSWIRQAPGKGLEWVSYISNSGSPIYYADSVKGRFTISRDNAKNSLYLQMNSLRAEDTAVYYCARDEPGWYFDLWGRGTLVTVSS VL: EIVLTQSPATLSLSPGERATLSCRASQSVSSYLAWYQQKPGQAPRLLIYDASNRATGIPARFSASGSGTDFTLTISSLEPEDFAVYYCQQRNNWPRTFGQGTKVEIK |
| 0.8 | 0.196 | 0.000109 | 555000 | 0.245 | 0.00094 | 3.84e+06 | P1-064526 (41F11_VH_D31E/Y50W/S55E/A60H/Y100E) (antibody, V domains shown, Kabat positions; also called P1-064526-1) VH: QVQLVESGGGLVKPGGSLRLSCAASGFTFSEYYMSWIRQAPGKGLEWVSWISNSGEPIYYHDSVKGRFTISRDNAKNSLYLQMNSLRAEDTAVYYCARDLPGWEFDLWGRGTLVTVSS VL: EIVLTQSPATLSLSPGERATLSCRASQSVSSYLAWYQQKPGQAPRLLIYDASNRATGIPARFSASGSGTDFTLTISSLEPEDFAVYYCQQRNNWPRTFGQGTKVEIK |
| 0.17 | 2.36 | 0.000755 | 320000 | 14.2 | 0.0329 | 2.32e+06 | P1-064480 (41F11_VH_A60H) (antibody, V domains shown, Kabat positions; also called P1-064480-1) VH: QVQLVESGGGLVKPGGSLRLSCAASGFTFSDYYMSWIRQAPGKGLEWVSYISNSGSPIYYHDSVKGRFTISRDNAKNSLYLQMNSLRAEDTAVYYCARDLPGWYFDLWGRGTLVTVSS VL: EIVLTQSPATLSLSPGERATLSCRASQSVSSYLAWYQQKPGQAPRLLIYDASNRATGIPARFSASGSGTDFTLTISSLEPEDFAVYYCQQRNNWPRTFGQGTKVEIK |
| 0.5 | 40.8 | 0.0123 | 301000 | 81.7 | 0.332 | 4.06e+06 | P1-064502 (41F11_Vk_R96YA64G) (antibody, V domains shown, also called P1-064502-1) VH: QVQLVESGGGLVKPGGSLRLSCAASGFTFSDYYMSWIRQAPGKGLEWVSYISNSGSPIYYADSVKGRFTISRDNAKNSLYLQMNSLRAEDTAVYYCARDLPGWYFDLWGRGTLVTVSS VL: EIVLTQSPATLSLSPGERATLSCRASQSVSSYLAWYQQKPGQAPRLLIYDASNRATGIPARFSGSGSGTDFTLTISSLEPEDFAVYYCQQRNNWPYTFGQGTKVEIK |
